Patent publication US20060193851A1

Tested on: 10C12 F(ab')2-leucine zipper

factor X
rate of FX activation by relipidated TF(1-243):FVIIa after incubating 10C12 with the substrate FX: 10C12 at up to 200 µg/ml did not inhibit FXa generation in either experimental setting
